Test results reported in article PMC12358912, “NIPBL and STAG1 enable loop extrusion by providing differential DNA–cohesin affinity” (Proceedings of the National Academy of Sciences of the …, 2024).

How the values were obtained:
[1] = molecular target: T1, SMC1/SMC3/SCC1 cohesin Trimer (UniProt Q14683 1-1233; Q9UQE7 1-1217; O60216 1-631); test: mass photometry; in solution; KD from evaluating the individual mass distributions of the STAG1 and cohesin Trimer mixtures directly (single-shot); settings: both partners purified
T1 construct: SMC1 subunit of the cohesin Trimer; SMC3 subunit of the cohesin Trimer; kleisin SCC1 (also known as RAD21 or Mcd1) of the cohesin Trimer; also called the cohesin Trimer; Trimer (SMC1/SMC3/SCC); copies: + +
T1 sequence (Q14683 whole entry, chain 1 of 3): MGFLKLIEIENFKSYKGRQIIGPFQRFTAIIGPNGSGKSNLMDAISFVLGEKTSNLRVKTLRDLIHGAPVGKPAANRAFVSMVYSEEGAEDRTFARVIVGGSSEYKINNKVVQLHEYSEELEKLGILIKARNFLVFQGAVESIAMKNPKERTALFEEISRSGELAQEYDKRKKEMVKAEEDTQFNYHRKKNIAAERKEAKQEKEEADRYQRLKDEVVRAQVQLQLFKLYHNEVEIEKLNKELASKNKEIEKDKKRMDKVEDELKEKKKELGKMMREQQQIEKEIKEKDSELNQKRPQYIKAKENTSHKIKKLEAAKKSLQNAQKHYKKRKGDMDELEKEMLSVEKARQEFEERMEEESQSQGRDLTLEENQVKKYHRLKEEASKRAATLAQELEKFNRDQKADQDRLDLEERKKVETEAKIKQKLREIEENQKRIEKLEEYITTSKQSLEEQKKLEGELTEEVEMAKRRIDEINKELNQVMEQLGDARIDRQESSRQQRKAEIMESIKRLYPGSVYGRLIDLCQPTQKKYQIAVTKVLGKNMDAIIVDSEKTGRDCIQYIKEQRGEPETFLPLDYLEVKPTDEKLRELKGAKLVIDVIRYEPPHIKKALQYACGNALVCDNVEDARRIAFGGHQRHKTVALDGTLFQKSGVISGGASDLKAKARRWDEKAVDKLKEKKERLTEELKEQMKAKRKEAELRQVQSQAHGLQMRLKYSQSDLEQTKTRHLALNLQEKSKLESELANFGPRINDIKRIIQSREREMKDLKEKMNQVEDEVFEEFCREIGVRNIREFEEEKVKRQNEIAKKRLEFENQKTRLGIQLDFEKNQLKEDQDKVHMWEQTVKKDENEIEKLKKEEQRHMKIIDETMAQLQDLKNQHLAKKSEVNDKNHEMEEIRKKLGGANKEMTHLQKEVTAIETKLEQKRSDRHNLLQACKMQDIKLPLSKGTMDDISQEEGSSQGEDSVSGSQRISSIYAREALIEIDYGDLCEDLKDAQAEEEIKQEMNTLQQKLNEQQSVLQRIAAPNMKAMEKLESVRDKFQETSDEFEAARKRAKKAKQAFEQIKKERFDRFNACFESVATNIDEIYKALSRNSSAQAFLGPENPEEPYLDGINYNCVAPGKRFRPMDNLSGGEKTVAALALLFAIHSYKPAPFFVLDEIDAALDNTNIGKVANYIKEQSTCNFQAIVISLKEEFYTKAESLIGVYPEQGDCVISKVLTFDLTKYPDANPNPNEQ
T1 sequence (Q9UQE7 whole entry, chain 2 of 3): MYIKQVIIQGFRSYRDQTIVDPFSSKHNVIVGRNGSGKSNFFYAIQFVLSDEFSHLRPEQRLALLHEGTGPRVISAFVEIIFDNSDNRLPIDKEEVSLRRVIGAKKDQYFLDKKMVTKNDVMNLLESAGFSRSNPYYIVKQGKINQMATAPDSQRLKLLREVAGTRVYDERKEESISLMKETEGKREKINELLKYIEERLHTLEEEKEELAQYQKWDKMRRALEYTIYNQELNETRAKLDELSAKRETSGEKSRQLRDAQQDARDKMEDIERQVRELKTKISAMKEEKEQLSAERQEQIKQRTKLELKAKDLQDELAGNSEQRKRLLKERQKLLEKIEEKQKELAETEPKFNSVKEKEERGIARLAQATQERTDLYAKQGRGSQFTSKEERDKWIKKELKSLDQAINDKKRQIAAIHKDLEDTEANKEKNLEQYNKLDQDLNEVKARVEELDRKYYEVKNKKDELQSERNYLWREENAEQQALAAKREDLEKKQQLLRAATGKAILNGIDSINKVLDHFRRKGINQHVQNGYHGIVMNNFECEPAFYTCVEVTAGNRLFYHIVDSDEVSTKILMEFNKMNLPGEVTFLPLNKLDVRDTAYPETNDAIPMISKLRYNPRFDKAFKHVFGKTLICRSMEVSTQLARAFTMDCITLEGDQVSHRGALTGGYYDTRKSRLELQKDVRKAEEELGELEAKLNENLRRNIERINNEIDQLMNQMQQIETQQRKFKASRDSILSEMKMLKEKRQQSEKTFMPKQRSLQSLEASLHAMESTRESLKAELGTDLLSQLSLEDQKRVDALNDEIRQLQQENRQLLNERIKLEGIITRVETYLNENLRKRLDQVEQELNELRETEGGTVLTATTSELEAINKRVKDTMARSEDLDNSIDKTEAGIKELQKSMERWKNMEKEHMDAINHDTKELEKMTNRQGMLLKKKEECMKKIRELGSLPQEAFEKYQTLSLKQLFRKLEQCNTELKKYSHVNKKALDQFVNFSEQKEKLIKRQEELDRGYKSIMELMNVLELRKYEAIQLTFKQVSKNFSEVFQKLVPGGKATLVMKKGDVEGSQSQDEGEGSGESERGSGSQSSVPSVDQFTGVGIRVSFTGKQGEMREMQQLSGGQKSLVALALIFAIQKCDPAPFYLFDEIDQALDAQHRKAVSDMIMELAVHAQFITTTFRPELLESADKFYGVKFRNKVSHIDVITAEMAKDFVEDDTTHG
T1 sequence (O60216 whole entry, chain 3 of 3): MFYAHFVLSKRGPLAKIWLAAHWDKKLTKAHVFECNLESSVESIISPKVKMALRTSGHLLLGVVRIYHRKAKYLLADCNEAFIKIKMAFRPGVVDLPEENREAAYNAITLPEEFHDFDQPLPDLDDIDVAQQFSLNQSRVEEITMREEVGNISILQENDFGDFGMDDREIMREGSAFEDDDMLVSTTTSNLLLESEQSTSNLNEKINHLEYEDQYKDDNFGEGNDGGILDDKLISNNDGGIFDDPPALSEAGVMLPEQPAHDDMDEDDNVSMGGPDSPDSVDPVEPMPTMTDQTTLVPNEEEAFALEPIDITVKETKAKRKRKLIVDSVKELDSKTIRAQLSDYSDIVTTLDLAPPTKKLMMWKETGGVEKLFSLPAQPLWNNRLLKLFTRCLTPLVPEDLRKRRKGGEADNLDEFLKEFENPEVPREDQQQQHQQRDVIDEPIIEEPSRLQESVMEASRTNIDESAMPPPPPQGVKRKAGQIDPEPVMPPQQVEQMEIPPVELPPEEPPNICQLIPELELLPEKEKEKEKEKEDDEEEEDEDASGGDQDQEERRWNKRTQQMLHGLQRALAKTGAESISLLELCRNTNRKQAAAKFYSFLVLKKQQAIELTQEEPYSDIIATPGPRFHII

[2] = molecular target: T1, SMC1/SMC3/SCC1 cohesin Trimer; test: mass photometry; in solution; titration at constant cohesin Trimer (50 nM total protein, 12.6 ± 0.9 nM effective Trimer), STAG1 3 to 30 nM, six concentrations with 3 technical repeats each; incubated to equilibrium; molar fraction of the complex fitted to the Hill equation; settings: both partners purified

B1: STAG1 (natural protein, human, UniProt Q8WVM7 1-1258, looked up)
chain: MITSELPVLQDSTNETTAHSDAGSELEETEVKGKRKRGRPGRPPSTNKKPRKSPGEKSRIEAGIRGAGRGRANGHPQQNGEGEPVTLFEVVKLGKSAMQSVVDDWIESYKQDRDIALLDLINFFIQCSGCRGTVRIEMFRNMQNAEIIRKMTEEFDEDSGDYPLTMPGPQWKKFRSNFCEFIGVLIRQCQYSIIYDEYMMDTVISLLTGLSDSQVRAFRHTSTLAAMKLMTALVNVALNLSIHQDNTQRQYEAERNKMIGKRANERLELLLQKRKELQENQDEIENMMNSIFKGIFVHRYRDAIAEIRAICIEEIGVWMKMYSDAFLNDSYLKYVGWTLHDRQGEVRLKCLKALQSLYTNRELFPKLELFTNRFKDRIVSMTLDKEYDVAVEAIRLVTLILHGSEEALSNEDCENVYHLVYSAHRPVAVAAGEFLHKKLFSRHDPQAEEALAKRRGRNSPNGNLIRMLVLFFLESELHEHAAYLVDSLWESSQELLKDWECMTELLLEEPVQGEEAMSDRQESALIELMVCTIRQAAEAHPPVGRGTGKRVLTAKERKTQIDDRNKLTEHFIITLPMLLSKYSADAEKVANLLQIPQYFDLEIYSTGRMEKHLDALLKQIKFVVEKHVESDVLEACSKTYSILCSEEYTIQNRVDIARSQLIDEFVDRFNHSVEDLLQEGEEADDDDIYNVLSTLKRLTSFHNAHDLTKWDLFGNCYRLLKTGIEHGAMPEQIVVQALQCSHYSILWQLVKITDGSPSKEDLLVLRKTVKSFLAVCQQCLSNVNTPVKEQAFMLLCDLLMIFSHQLMTGGREGLQPLVFNPDTGLQSELLSFVMDHVFIDQDEENQSMEGDEEDEANKIEALHKRRNLLAAFSKLIIYDIVDMHAAADIFKHYMKYYNDYGDIIKETLSKTRQIDKIQCAKTLILSLQQLFNELVQEQGPNLDRTSAHVSGIKELARRFALTFGLDQIKTREAVATLHKDGIEFAFKYQNQKGQEYPPPNLAFLEVLSEFSSKLLRQDKKTVHSYLEKFLTEQMMERREDVWLPLISYRNSLVTGGEDDRMSVNSGSSSSKTSSVRNKKGRPPLHKKRVEDESLDNTWLNRTDTMIQTPGPLPAPQLTSTVLRENSRPMGDQIQEPESEHGSEPDFLHNPQMQISWLGQPKLEDLNRKDRTGMNYMKVRTGVRHAVRGLMEEDAEPIFEDVMMSSRSQLEDMNEEFEDTMVIDLPPSRNRRERAELRPDFFDSAAIIEDDSGFGMPMF
notes: human STAG1, a HAWK subunit of cohesin; measured at 148 ± 2 kDa by mass photometry; also called Scc3
[1]
  Kd: 5.4 ± 1.7 nM
[2]
  Kd: 6.2 ± 0.7 nM
